Source: the supplement of paper PMC12855868

B1: library; numbered along this chain (parent)
chain: MAAAGGARLLRAASAVLGGPAGRWLHHAGSRAGSSGLLRNRGPGGSAEASRSLSVSARARSSSEDKITVHFINRDGETLTTKGKVGDSLLDVVVENNLDIDGFGACEGTLACSTCHLIFEDHIYEKLDAITDEENDMLDLAYGLTDRSRLGCQICLTKSMDNMTVRVPETVADARQSIDVGKTS

Variants of: B1
Test: scaled log2 fold change in cell abundance, elesclomol vs control (0 = silent mean, 1 = nonsense mean) (scaled log2 ratio); higher = higher viability under elesclomol (loss of FDX1 cuproptosis function)
Settings: glucose 10 mM
Procedure: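 Deep mutational scan of full-length human FDX1: a pooled saturation-mutagenesis ORF library (every residue 2-184 mutated to all 19 amino acids plus stop, and silent codons where available) was expressed by lentivirus in FDX1-knockout ABC1 (14 days) or HEK293T (11 days) cells grown with elesclomol (ES) or DMSO control. Variant abundance came from ORF sequencing. The log2 fold change (ES vs control, mean of duplicates) was centred on the silent-variant mean (0) and scaled to the nonsense-variant mean (1). Higher values mean greater viability under ES, i.e. loss of FDX1 function in cuproptosis.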

[1] = with ABC1 FDX1 KO, elesclomol 5 nM, 14 days
[2] = with HEK293T FDX1 KO, elesclomol 40 nM, 11 days
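Note: variant abundance is its share of total variant reads in each endpoint sample, from next-generation sequencing of the integrated ORF PCR-amplified out of genomic DNA.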

Row | Variant | scaled log2 fold change [1] | scaled log2 fold change [2]
1 | G33K | 0.0454 | 0.247
2 | G33Q | -0.173 | -0.043
3 | G33R | -0.26 | -0.362
4 | G33S | 0.208 | -0.0845
5 | G33Y | 0.0588 | 0.657
6 | G33L | -0.121 | -1.21
7 | G33T | 0.154 | 0.176
8 | G33V | 0.127 | 0.731
9 | G33A | 0.0776 | 0.0796
10 | G33E | 0.197 | -0.759
11 | G33H | 0.23 | 0.469
12 | G33F | 0.0743 | 0.637
13 | G33C | -0.0719 | 0.194
14 | G33P | -0.0501 | 0.139
15 | S30I | 0.0124 | -0.232
16 | S30G | -0.403 | 0.208
17 | S30T | -0.784 | -0.554
18 | S30A | 0.166 | -0.0965
19 | S30M | 0.423 | -0.121
20 | S30Q | 0.345 | -0.23

Row | Variant | scaled log2 fold change [1] | scaled log2 fold change [2]
21 | S30L | 0.0325 | –
22 | S30H | 0.109 | 0.106
23 | S30C | 0.348 | -0.559
24 | S30D | 0.413 | 0.89
25 | S30F | -0.244 | -0.2
26 | S30Y | -0.00883 | -0.262
27 | S30R | 0.119 | –
28 | S30V | 0.222 | -0.701
29 | S30E | 0.181 | -0.188
30 | S30K | 0.428 | -0.721
31 | S30N | 0.26 | -0.64
32 | L38F | 0.294 | 0.135
33 | L38I | -0.615 | 0.0108
34 | L38Q | -0.878 | -0.206
35 | L38R | 0.333 | 1.23
36 | L38T | 0.403 | 0.953
37 | L38V | -0.109 | –
38 | L38C | -0.631 | 0.0841
39 | L38A | -0.113 | –
40 | L38S | -0.172 | -0.0978

Row | Variant | scaled log2 fold change [1] | scaled log2 fold change [2]
41 | L38G | -0.74 | –
42 | L38N | 0.377 | 0.121
43 | L38E | 0.019 | 0.931
44 | L38W | -0.0179 | –
45 | L38K | -0.0234 | 0.601
46 | L38H | 0.153 | 0.35
47 | L38M | 0.492 | 1.02
48 | L38Y | -0.0523 | -0.184
49 | L38P | -0.12 | 0.667
50 | L38D | 0.132 | -0.187
51 | H27D | -0.0235 | -0.507
52 | H27R | 0.168 | -0.247
53 | H27N | -0.105 | 0.565
54 | H27V | 0.305 | 0.364
55 | H27K | 0.325 | 0.621
56 | H27L | 0.396 | –
57 | H27S | 0.273 | –
58 | H27Q | 0.286 | -0.318
59 | H27F | 0.196 | 0.363
60 | H27G | 0.0381 | -0.171
